According to US20240366624A1 (WASHINGTON UNIVERSITY, published 2024):

What was measured:
[1] = target: T1, human platelet PDI (protein disulfide isomerase) (human, UniProt P07237 18-508); assay: immunoprecipitation of PDI from lysates of resting and thrombin-treated human platelets, immunoblot with anti-ERO1α, densitometry
T1 construct: Immunoprecipitated with biotinylated polyclonal anti-PDI antibodies
Description: FIG. 1(A-D) is an exemplary embodiment of PDI interacting with ERO1α in platelets in accordance with the present disclosure. Human platelets were treated with or without thrombin for 5 minutes and immunoprecipitated with biotinylated polyclonal anti-PDI antibodies or control IgG. After trypsin digestion, mass spectrometric analysis was conducted. […] FIG. 1B: Examples of the identification of the tryptic peptides […] (SEQ ID NO: 1) and […] (SEQ ID NO: 2) from ERO1α in which the parent ion is observed at 521.77 and 753.37 m/z, respectively, and the parent ion mass error is 4.3 and 3.5 ppm, respectively. FIG. 1C: The peptide sequences of ERO1α that were detected after trypsin digestion. FIG. 1D: After immunoprecipitation with antibodies, the bound fraction was immunoblotted with the indicated antibodies, followed by densitometry (the band density of ERO1a/that of PDI). The data represent the mean±SD (n=3). P value determined by unpaired Student's t-test.

[2] = target: T2, human platelet STIM1 (stromal interaction molecule 1) (human, UniProt Q13586 23-685); assay: co-immunoprecipitation of ERO1α from lysates of resting and thrombin-activated human platelets, mass spectrometry; volcano plot thrombin versus no thrombin
T2 construct: Co-immunoprecipitated with ERO1α

[3] = target: T3, human platelet SERCA2 (sarco/endoplasmic reticulum Ca2+ ATPase 2) (human, UniProt P16615 1-1042, limits assumed); assay: as above
T3 construct: Co-immunoprecipitated with ERO1α
T3 sequence (P16615 whole entry): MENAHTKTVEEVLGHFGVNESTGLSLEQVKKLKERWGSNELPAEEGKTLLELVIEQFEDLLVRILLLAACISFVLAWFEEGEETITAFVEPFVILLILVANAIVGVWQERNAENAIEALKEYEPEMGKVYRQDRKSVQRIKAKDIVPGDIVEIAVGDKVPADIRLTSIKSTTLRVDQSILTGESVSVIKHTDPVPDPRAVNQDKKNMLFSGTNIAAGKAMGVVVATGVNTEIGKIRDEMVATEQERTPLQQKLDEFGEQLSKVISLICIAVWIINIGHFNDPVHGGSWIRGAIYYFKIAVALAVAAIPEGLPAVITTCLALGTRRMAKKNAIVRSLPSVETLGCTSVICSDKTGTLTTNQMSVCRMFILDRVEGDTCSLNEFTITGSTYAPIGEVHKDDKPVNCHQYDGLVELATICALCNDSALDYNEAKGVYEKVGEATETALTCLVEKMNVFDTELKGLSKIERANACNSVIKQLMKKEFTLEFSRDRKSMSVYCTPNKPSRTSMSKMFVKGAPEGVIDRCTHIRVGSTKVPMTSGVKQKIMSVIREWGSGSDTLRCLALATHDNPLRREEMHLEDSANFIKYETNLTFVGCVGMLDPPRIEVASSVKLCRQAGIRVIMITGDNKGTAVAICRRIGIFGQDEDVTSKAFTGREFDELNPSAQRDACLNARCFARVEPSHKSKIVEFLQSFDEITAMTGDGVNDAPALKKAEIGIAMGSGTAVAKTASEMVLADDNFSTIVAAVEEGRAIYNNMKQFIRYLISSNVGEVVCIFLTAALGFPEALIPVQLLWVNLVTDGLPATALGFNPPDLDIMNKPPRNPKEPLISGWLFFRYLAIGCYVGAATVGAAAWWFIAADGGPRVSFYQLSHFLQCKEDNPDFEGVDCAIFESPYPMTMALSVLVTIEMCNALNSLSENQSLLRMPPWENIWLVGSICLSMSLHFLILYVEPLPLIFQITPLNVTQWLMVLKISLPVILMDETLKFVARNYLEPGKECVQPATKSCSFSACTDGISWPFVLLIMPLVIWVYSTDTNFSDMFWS

[4] = target: T4, recombinant human ERO1α (endoplasmic reticulum oxidoreductase 1α), wild type (human, UniProt Q96HE7 24-468, biotinylated when coupled to the bio-layer interferometry biosensor (site not stated)); assay: bio-layer interferometry, biotinylated ERO1α on the biosensor, STIM1 in solution
T4 construct: also called wtERO1α; biotinylated ERO1α
T4 sequence (looked up): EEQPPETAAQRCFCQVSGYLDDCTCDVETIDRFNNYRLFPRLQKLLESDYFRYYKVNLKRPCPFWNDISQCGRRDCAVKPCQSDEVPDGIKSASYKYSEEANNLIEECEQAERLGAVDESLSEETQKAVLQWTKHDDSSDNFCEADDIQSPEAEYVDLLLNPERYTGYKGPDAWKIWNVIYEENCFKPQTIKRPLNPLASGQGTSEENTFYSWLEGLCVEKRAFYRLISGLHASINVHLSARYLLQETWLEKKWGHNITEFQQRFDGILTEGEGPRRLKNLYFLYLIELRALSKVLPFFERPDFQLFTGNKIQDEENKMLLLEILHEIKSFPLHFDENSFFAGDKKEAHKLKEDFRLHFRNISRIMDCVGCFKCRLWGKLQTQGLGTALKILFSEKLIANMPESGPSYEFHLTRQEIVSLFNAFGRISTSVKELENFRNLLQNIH
Description: PDI is reported to localize in the DTS of platelets. […] It is reported that deletion of platelet STIM1 reduces Ca²⁺ store content in the DTS and SOCE. Thus, ERO1α regulation of STIM1 function was investigated. Bio-layer interferometry was first performed using a biosensor coupled with biotinylated ERO1α and a different concentration of WT or mutant STIM1 in which Cys49 and Cys56 residues were mutated to Ser49 and Ser56 (mutant STIM1 [mSTIM1]-Cys49/56Ser).

T1 sequence (P07237 18-508 limits assumed): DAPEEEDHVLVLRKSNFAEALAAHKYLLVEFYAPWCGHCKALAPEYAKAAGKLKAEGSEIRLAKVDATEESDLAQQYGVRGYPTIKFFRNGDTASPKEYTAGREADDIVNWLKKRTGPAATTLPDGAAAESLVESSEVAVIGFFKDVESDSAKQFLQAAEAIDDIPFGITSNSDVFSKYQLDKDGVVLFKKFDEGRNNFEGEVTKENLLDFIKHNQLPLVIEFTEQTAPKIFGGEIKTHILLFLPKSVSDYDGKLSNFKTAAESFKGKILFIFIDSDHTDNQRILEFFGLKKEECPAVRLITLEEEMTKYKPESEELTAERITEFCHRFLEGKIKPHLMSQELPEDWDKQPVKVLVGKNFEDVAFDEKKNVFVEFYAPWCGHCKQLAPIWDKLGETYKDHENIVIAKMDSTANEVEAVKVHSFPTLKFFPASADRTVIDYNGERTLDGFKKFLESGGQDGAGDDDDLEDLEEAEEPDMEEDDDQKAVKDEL

B1: human platelet ERO1α (enzyme, UniProt Q96HE7 24-468, looked up)
chain: T4 sequence (looked up)
notes: Endogenous protein in platelet lysates (immunoprecipitation, immunoblot)
binding result [1]: binds | binding result [2]: binds | binding result [3]: binds

B2: wild type STIM1, recombinant (other, UniProt Q13586 23-213, looked up)
chain: LSHSHSEKATGTSSGANSEESTAAEFCRIDKPLCHSEDEKLSFEAVRNIHKLMDDDANGDVDVEESDEFLREDLNYHDPTVKHSTFHGEDKLISVEDLWKAWKSSEVYNWTVDEVVQWLITYVELPQYEETFRKLQLSGHAMPRLAVTNTTMTGTVLKMTDRSHRQKLQLKALDTVLFGPPLLTRHNHLKD
notes: also called wtSTIM1; WT STIM1
Kd [4]: 2600 nM
